B1: Ago3: dsRNA targeting Argonaute-3 (AAEL007823), Example 1, SEQ ID NO: 1823 (nucleic acid)
chain: CCCCGTCGACGGCCACGAAGTTACGATCAAGATCATTTACAAGCGCAAACAGCGAATGAGCGAGAACATTCAATTCTACAACATTCTCTTCCAACGCATTATGAAAGTCCTGAAGATGGTCGAGATGGGTCGTAAGAACTTTGACCCCTCGGCCCCGAAACTGATTCCGCAGCATCGTCTGGAGATCTGGCCGGGATACGTTAGCGCTGTGGACGAATATGAGGGCGGCTTGATGTTGAATCTCGACGTGTCCCATCGTGTGCTGCTCCAGACGACGGTTTTGGATCACATCCGAACGCTGGCAAGGGCCAATCCCCAAGATTACAAAAACATGGCCACCAAATCGCTGCTGGGAGCCGTTATATTGACCCGA
modifications: double stranded RNA

Experiments:
[1] = tested on: Aedes aegypti female mosquitoes, Rio de Janeiro strain; assay: CDC bottle bioassay with deltamethrin, insecticide-resistant Rio de Janeiro strain; format: in vivo
Protocol: (§1) FIGS. 5A-C are graphs illustrating the dose-response curves for 3- to 5-day-old Aedes aegypti female mosquitoes on insecticide-susceptible Rockefeller strain (FIG. 5A) and on insecticide-resistant Rio de Janeiro strain (FIG. 5B). Mosquitoes were exposed to different concentrations of deltamethrin in 250-mL glass bottles for up to 24 hours and the percentage of mortality for each time point is shown. FIG. 5C, comparison of the mortality rates of female mosquitoes from Rockefeller (Rock) and Rio de Janeiro (RJ) strains exposed to 2 μg/mL of deltamethrin for different time-points. Data represent mean values of three replicates with standard deviation.
(§2) Mosquitoes were taken from an Ae. aegypti colony of the Rockefeller strain or from a mosquito field population of Ae. aegypti isolated from urban area of Rio de Janeiro, Brazil. Both lineages were reared continuously in the laboratory at 28° C. and 70-80% relative humidity. Adult mosquitoes were maintained in a 10% sucrose solution, and the adult females were fed with sheep blood for egg laying. The larvae were reared on dog/cat food unless stated otherwise.
(§3) Bottles were prepared following the Brogdon and McAllister (1998) protocol [Brogdon and McAllister (1998) Emerg Infect Dis 4:605-613]. […] At 15, 30 and 45 min intervals, the number of live and dead mosquitoes in each bottle was recorded. […]

[2] = tested on: Aedes aegypti female mosquitoes, Rockefeller strain; assay: CDC bottle bioassay with deltamethrin, insecticide-susceptible Rockefeller strain; format: in vivo; conditions: diagnostic dosage 2 μg/mL of deltamethrin; Rockefeller strain adult females
Protocol: as §1, §2, §3

[3] = tested on: Ae. aegypti Rockefeller strain; assay: Oviposition assay after larval dsRNA soaking plus feeding; format: in vivo, Aedes aegypti; conditions: larvae soaked 24 h in 0.5 μg/μL dsRNA, fed twice with agarose plug containing dsRNA; 15 engorged females per cage; vs water control
Protocol: FIG. 12 is a flowchart illustration depicting introduction of dsRNA into mosquito larvae via soaking with different doses of “naked” dsRNA plus additional larvae feeding with food-containing dsRNA. Step a) 100 larvae from A. aegypti Rockefeller strain (3rd instar) were soaked for 24 hours with the respective dsRNAs (concentration range from 0.02-0.5 μg/μL) or only in water and were then fed 2 times with food plus agarose 2% containing dsRNA until they reach adult stage (Step b). Step c) The adults arising were allowed to copulate for 3-5 days. Step d) mosquitoes were fed with defibrinated sheep blood. Step e) after blood feeding 15 fully-engorged females were transferred into 3 small cages to be assayed for oviposition. Step f) the total number of laid eggs and the percentage of hatched eggs were counted. FIGS. 13A-B are graphs illustrating larvae from Ae. aegypti Rockefeller strain (3rd instar) soaked for 24 hours in 0.5 μg/μL of Aubergine (Aub) or Argonaute-3 (Ago) dsRNAs or water only. […] (FIG. 13A) The total number of laid eggs and the percentage of hatched eggs were counted (FIG. 13B). […]
(§4) Five days after the blood meal, an ovipositon cup was place inside each cage containing 15 females to allow the females to lay their eggs. […] The number of eggs laid was counted and used to check the viability and egg hatching rate.

[4] = tested on: Ae. aegypti Rockefeller strain; assay: Egg hatching rate after larval dsRNA soaking plus feeding; format: in vivo, Aedes aegypti; conditions: larvae soaked 24 h in 0.5 μg/μL dsRNA, fed twice with agarose plug containing dsRNA; vs water control
Protocol: FIG. 12 is a flowchart illustration depicting introduction of dsRNA into mosquito larvae via soaking with different doses of “naked” dsRNA plus additional larvae feeding with food-containing dsRNA. Step a) 100 larvae from A. aegypti Rockefeller strain (3rd instar) were soaked for 24 hours with the respective dsRNAs (concentration range from 0.02-0.5 μg/μL) or only in water and were then fed 2 times with food plus agarose 2% containing dsRNA until they reach adult stage (Step b). Step c) The adults arising were allowed to copulate for 3-5 days. Step d) mosquitoes were fed with defibrinated sheep blood. Step e) after blood feeding 15 fully-engorged females were transferred into 3 small cages to be assayed for oviposition. Step f) the total number of laid eggs and the percentage of hatched eggs were counted. […] (FIG. 13A) The total number of laid eggs and the percentage of hatched eggs were counted (FIG. 13B). […]
as §4
To check the viability of the eggs the oviposition paper were kept to dry and embrionate for a period minimum of 5 days. […] The hatching rate (HR) for each treatment were calculated as follow: HR=total number of hatched larvae/total number of eggs oviposited). […]

[5] = tested on: Argonaute-3 (AAEL007823) mRNA; assay: qPCR analysis of Ago-3 mRNA expression after dsRNA treatment; format: in vivo, Aedes aegypti; conditions: vs water; for Ago3 mRNA levels: larvae soaked 24 h in dsRNA, 24 and 48 hours after the end of dsRNA treatment
Protocol: Third instar larvae were treated (in groups of 100 larvae) in a final volume of 3 mL of dsRNA solution in autoclaved water (0.5 μg/μL for sodium channel (AAEL008297), PgP (AAEL010379) and Ago3 (AAEL007823) dsRNA, or 0.1 μg/μL for CYP9J26 (JF924909.1). The control group was kept in 3 ml sterile water only. Larvae were soaked in the dsRNA solutions for 24 hr at 27° C., and then transferred into new containers (300 larvae/1500 mL of chlorine-free tap water), which were also maintained at 27° C., and were provided 6 mg/100 mL lab dog/cat diet (Purina Mills) suspended in water as a source of food on a daily basis. As pupae developed, they were transferred to individual vials to await eclosion and sex sorting. For bioassays purpose only females up to five days old were used. See Flowchart 1, FIG. 1 for detailed explanation of this experiment.
Total RNA was extracted from groups of five Ae. aegypti fourth instar larvae and early adult male/female Ae. aegypti, using TRIzol (Invitrogen, Carlsbad, Calif., USA) according to the manufacturer's instructions. RNA was treated with amplification grade DNase I (Invitrogen) and 1 μg was used to synthesize cDNA using a First Strand cDNA Synthesis kit (Invitrogen). PCR products were purified using a QIAquick PCR purification kit (Qiagen). The MEGAscript RNAi kit (Ambion) was then used for in vitro transcription and purification of dsRNAs. See Flowchart 4, FIG. 4 for detailed explanation production off dsRNA.
Approximately 1000 ng first-strand cDNA obtained as described previously was used as template. The qPCR reactions were performed using SYBR® Green PCR Master Mix (Applied Biosystems) following the manufacturer's instructions. […] Raw quantification cycle (Cq) values normalized against those of the tubulin and S7 standards were then used to calculate the relative expression levels in samples using the 2^−ΔΔct method [Livak & Schmittgen, (2001) Methods. […]

| Molecule | mosquitoes in the population resistant to deltamethrin ([1]; Rio de Janeiro (RJ) strain, at diagnostic dosage 2 μg/mL) [%] | mosquitoes killed (mortality) ([1]; diagnostic dosage 2 μg/mL of deltamethrin, Rio de Janeiro strain adult females) [%] | mosquitoes dead (mortality) [2] [%] | oviposition rate (total number of laid eggs) [3] | number of hatched eggs (hatchability) [4] [%] | Ago3 mRNA expression ([5]; adult mosquitoes soaked with dsRNA as larvae) | Ago3 mRNA levels [5] | Ago3 mRNA levels ([5]; listed as dsRNA against Ago3) |
| --- | --- | --- | --- | --- | --- | --- | --- | --- |
| CC1(C)[C@H](C(=O)O[C@H](C#N)c2cccc(Oc3ccccc3)c2)[C@@H]1C=C(Br)Br [deltamethrin] | 36.05 | 63.95 | 100 |  |  |  |  |  |
| B1 |  |  |  | no difference | 50 | reached normal levels | decreased mRNA levels | induce gene silencing |

Reference: patent publication US20170071208A1, “COMPOSITIONS FOR MOSQUITO CONTROL AND USES OF SAME” (Forrest Innovations Ltd., priority 2014, published 2017)
